# From patent publication US20250250357A1 (NANJING ZAIMING PHARMACEUTICAL, published 2025)
# Substitutions are numbered along the chain they refer to.
# B1: S009-F8-4.5 (antibody, human IgG1, kappa, V domains shown)
# VH: QVQLQQPGAELVKPGASVKLSCKASGYTFTIYWMHWVKQRPGQGLEWIGMIHPNSGNTNYNEKFKSKATLTVDKSSSTAYMQLSSLTSEDSAVYYCSLIHWYFDVWGTGTTVTVSS
# VL: QIVLTQSPAIMSASPGEKVTMTCSASSSVSYMYWYQQKPGSSPRLLIYDTSNLASGVPVRFSGSGSGTSYSLTISRMEAEDAATYYCQQWSSYPLTFGAGTKLELKR
# notes: human-murine chimeric antibody, human IgG1/kappa constant regions
# B2: S009-F8-13.8 (antibody, human IgG1, kappa, V domains shown)
# VH: EFQLQQSGPELVKPGASVKISCKASGYSFTDYNMNWVKQTNGKSLEWIGIINPNYGTSSYNQKFKGKATLTVDQSSSTAYMQLNSLTSEDSAVYYCARVGRDNSGFDYWGQGTTLTVSS
# VL: B1 VL with L95P, A99S, K102E, L105I
# notes: as for B1
# B3: S009-F8-12.13 (antibody, human IgG1, kappa, V domains shown)
# VH: QVQLQQPGAELVKPGASVKLSCKASGYTFTSYWMHWVKQRPGQGLEWIGMIHPNSGSTNYNEKFKSKATLTVDKSSSTAYMQLSSLTSEDSAVYYCARRTPIITLVGHWYFDVWGTGTTVTVSS
# VL: DIVMTQSHKFMSTSVGDRVSITCKASQDVGTAVAWYQQKPGQSPKLLIYWASTRHTGVPDRFTGSGSGTDFTLTISNVQSEDLADYFCQQYSSYPLTFGAGTKLELKR
# notes: as for B1
# B4: S009-F8-15.19 (antibody, human IgG1, kappa, V domains shown)
# VH: EFQLQQSGPELVKPGASVKISCKASGYSFTDYNMNWVKQSNGKSLEWIGIINPYYGTTSNNQNFKGKATLTVDQSSSTAYMQLNSLTSDDSAVYYCARWLRRDAMDYWGQGTSVTVSS
# VL: B3 VL with Q6P, T22A, T31S, A32S, A51T, L96W, A100G, L106I
# notes: as for B1
# B5: S009-F8-18.9 (antibody, human IgG1, kappa, V domains shown)
# VH: EFQLQQSGPELVKPGASVKISCKASGYSFTDYNMNWVKQSNGKSLEWIGIINPNYGTTSYNQKFKGRATLTVDQSSSTAYVQLNSLTSEDSAVYYCARGGYDNEAMDYWGQGTSVTVSS
# VL: QIVLTQSPAIMSASPGEKVTMTCSASSSVSYMHWYQQKSGTSPKRWIYDTSKLASGVPARFSGSGSGTSYSLTISSMEAEDAATYYCQQWSSNPPTFGAGTKLELKR
# notes: as for B1
# B6: S009-F8-19.21 (antibody, human IgG1, kappa, V domains shown)
# VH: B5 VH with A24T, I50V, S59G, R67K, V81M, N103G, Q111H
# VL: B5 VL with S30N, N93Y, A99G, L105I
# notes: as for B1
# B7: S009-F8-27.1 (antibody, human IgG1, kappa, V domains shown)
# VH: EVQLVESGGGLVKPGGSLKLSCAASGFTFSSYAMSWVRQTPEKRLEWVATISDGGNYTYYPDNVKGRFTISRDNAKNNLYLQMSHLKSEDTAMYYCAGDRGYPYAMDSWGQGTSVTVSS
# VL: NIMMTQSPSSLAVSAGEKVTMSCKSSQSVLYSSNQKNYLAWYQQKPGQSPKLLIYWASTRESGVPDRFTGSGSGTDFTLTISNVHAEDLAVYYCHQYLSSLTFGAGTKLELKR
# notes: as for B1
# B8: S009-F8-7.5 (antibody, human IgG1, kappa, V domains shown)
# VH: DVQLQESGPGLVKPSQSLSLTCSVTGYSITSGYYWNWIRQFPGNKLEWMAYIRYDGSNNYNPSLKNRISIIRDTSKNQFFLRLNSVTTEDTATYYCAKSYYGMDDWGQGISVTVSS
# VL: DIQMTQSPASLSASVGETVTITCRTSGDIHNYLAWYQQKQGKSPQLLVYKAKTLENGVPSRFTGSGSGTQFSLKIDSLQPEDFGTYYCQHFWTTPYTFGGGTKLEIKR
# notes: as for B1
# Target: T1, human MSLN protein endogenously expressed on OVCAR3 tumor cells (human, UniProt Q13421 296-598)
# T1 construct: whole, on cells; endogenous expression on a tumor cell line; also called human mesothelin
# T1 sequence (Q13421 other isoform, or with tags, fused parts or gaps): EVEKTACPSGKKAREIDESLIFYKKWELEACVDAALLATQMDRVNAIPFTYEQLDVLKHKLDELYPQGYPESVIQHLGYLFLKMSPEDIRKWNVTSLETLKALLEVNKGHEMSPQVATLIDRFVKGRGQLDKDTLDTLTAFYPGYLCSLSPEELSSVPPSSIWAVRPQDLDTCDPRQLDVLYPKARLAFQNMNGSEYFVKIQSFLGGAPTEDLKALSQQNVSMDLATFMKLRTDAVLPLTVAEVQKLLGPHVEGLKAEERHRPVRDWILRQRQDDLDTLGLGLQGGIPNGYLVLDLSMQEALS
# Assay: FACS on OVCAR3 cells;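 also: flow cytometry of chimeric antibody binding to OVCAR3 cells, 2 h on ice, read as cellular mean fluorescence intensity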
# Procedure: The desired cells were expanded to the logarithmic growth phase in a T-75 cell culture flask. […] After the cells from the previous step were subjected to cell counting, the cell pellet was resuspended to 2×10⁶ cells/mL in a blocking buffer of [PBS+2% (w/w) BSA] and added into a 96-well FACS reaction plate at 50 μL/well. A chimeric antibody (a sample to be tested) was added at 50 μL/well, and the plate was incubated on ice for 2 h. […] After the plate was centrifuged and washed 5 times with a PBST buffer, assay and analysis were performed by FACS (FACS CantoII, purchased from BD). Data analysis was performed by software (Flowjo) to obtain the mean fluorescence intensity (MFI) of the cells.
EC50,Maximum mean fluorescence intensity,Binder
4.93 nM,14000,B1
1.42 nM,13000,B2
2.24 nM,9830,B3
3.16 nM,8140,B4
24.1 nM,10800,B5
5.13 nM,13000,B6
77.9 nM,7620,B7
0.71 nM,8990,B8

# Target: T2, human MSLN-R3 protein expressed on HEK293T cells (HEK293T-hMSLN-R3) (human, UniProt Q13421 487-606)
# T2 construct: C-terminal limit uncertain
# T2 sequence (Q13421 495-614): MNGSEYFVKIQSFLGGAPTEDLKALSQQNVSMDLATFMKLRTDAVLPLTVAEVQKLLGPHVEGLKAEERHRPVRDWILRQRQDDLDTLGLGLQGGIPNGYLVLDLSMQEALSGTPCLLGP
# Assay: FACS on HEK293T-hMSLN-R3 cells;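 also: chimeric antibodies incubated with cells on ice for 2 h, binding read by flow cytometry as mean fluorescence intensity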
Maximum mean fluorescence intensity,binding result,Binder
192,no binding,B1
95,no binding,B2
135,no binding,B3
165,no binding,B4
131,no binding,B5
98,no binding,B6
120,no binding,B7
279,no binding,B8

# Target: T3, human MSLN-FL-his protein (human, UniProt Q13421 296-580)
# T3 construct: made in HEK293E cells, purified on nickel column; also called hMSLN-FL-his; human MSLN full-length protein; not shown: His tag
# T3 sequence (Q13421 other isoform, or with tags, fused parts or gaps): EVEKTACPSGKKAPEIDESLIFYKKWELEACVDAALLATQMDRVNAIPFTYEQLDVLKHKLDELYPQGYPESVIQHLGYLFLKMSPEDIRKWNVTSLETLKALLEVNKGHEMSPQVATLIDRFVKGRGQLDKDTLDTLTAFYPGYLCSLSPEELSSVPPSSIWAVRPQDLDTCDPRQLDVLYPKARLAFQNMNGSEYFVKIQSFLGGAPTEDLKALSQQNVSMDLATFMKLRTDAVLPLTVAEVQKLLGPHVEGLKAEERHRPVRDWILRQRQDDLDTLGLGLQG
# Assay: competitive ELISA; row F8-4.5; also: test concentration or dose not given here
row,competition rate,Binder
1,97.5%,B1
2,93%,B2
3,88.2%,B3
4,43.8%,B4
5,83.3%,B5
6,89.7%,B6
7,92%,B7
8,3.24%,B8

# Target: T3, human MSLN-FL-his protein
# Assay: competitive ELISA; row F8-7.5; also: test concentration or dose not given here
row,competition rate,Binder
1,23.6%,B1
2,-135%,B2
3,-135%,B3
4,-117%,B4
5,-116%,B5
6,-137%,B6
7,-9.43%,B7
8,85.8%,B8

# Target: T3, human MSLN-FL-his protein
# Assay: competitive ELISA; row Tab021; also: test concentration or dose not given here
row,competition rate,Binder
1,9.76%,B1
2,14.2%,B2
3,6.56%,B3
4,-2.08%,B4
5,2.63%,B5
6,4.93%,B6
7,12.2%,B7
8,14.2%,B8

# Target: T3, human MSLN-FL-his protein
# Assay: competitive ELISA; row Tab142; also: test concentration or dose not given here
row,competition rate,Binder
1,97.8%,B1
2,93.8%,B2
3,65.5%,B3
4,39.3%,B4
5,85.5%,B5
6,92.2%,B6
7,86.2%,B7
8,2.16%,B8

# Target: T3, human MSLN-FL-his protein
# Assay: competitive ELISA; row F8-13.8; also: test concentration or dose not given here
row,competition rate,Binder
1,95.8%,B1
2,86.2%,B2
3,51.1%,B3
4,24%,B4
5,77.5%,B5
6,82%,B6
7,74.6%,B7
8,3.15%,B8

# Target: T3, human MSLN-FL-his protein
# Assay: competitive ELISA; row F8-18.9; also: test concentration or dose not given here
row,competition rate,Binder
1,8.32%,B1
2,11.3%,B2
3,10.1%,B3
4,8.37%,B4
5,6.6%,B5
6,6.96%,B6
7,-2.77%,B7
8,11.2%,B8

# Target: T3, human MSLN-FL-his protein
# Assay: competitive ELISA; row F8-27.1; also: test concentration or dose not given here
row,competition rate,Binder
1,99.8%,B1
2,98.4%,B2
3,93.5%,B3
4,75.5%,B4
5,96.8%,B5
6,98.4%,B6
7,95.3%,B7
8,3.35%,B8

# Target: T3, human MSLN-FL-his protein
# Assay: competitive ELISA; row F8-5.15; also: test concentration or dose not given here
row,competition rate,Binder
1,100%,B1
2,99.9%,B2
3,99.3%,B3
4,99.3%,B4
5,99.7%,B5
6,99.5%,B6
7,99.8%,B7
8,83.3%,B8

# Target: T3, human MSLN-FL-his protein
# Assay: competitive ELISA; row F8-12.13; also: test concentration or dose not given here
row,competition rate,Binder
1,98.9%,B1
2,97.9%,B2
3,93.7%,B3
4,89.3%,B4
5,97.2%,B5
6,97.3%,B6
7,98.7%,B7
8,-23.2%,B8

# Target: T3, human MSLN-FL-his protein
# Assay: competitive ELISA; row F8-15.19; also: test concentration or dose not given here
row,competition rate,Binder
1,100%,B1
2,99.8%,B2
3,98.5%,B3
4,94.1%,B4
5,99.5%,B5
6,99.8%,B6
7,99.2%,B7
8,-15.7%,B8

# Target: T3, human MSLN-FL-his protein
# Assay: competitive ELISA; row F8-19.21; also: test concentration or dose not given here
row,competition rate,Binder
1,98.9%,B1
2,96.5%,B2
3,75.9%,B3
4,46.9%,B4
5,91.3%,B5
6,95.4%,B6
7,90.2%,B7
8,14.7%,B8

# Target: T3, human MSLN-FL-his protein
# Assay: competitive ELISA; row F8-31.22; also: test concentration or dose not given here
row,competition rate,Binder
1,89.7%,B1
2,99%,B2
3,92.2%,B3
4,90.7%,B4
5,98%,B5
6,98.5%,B6
7,-13.1%,B7
8,-71.5%,B8

# Target: T3, human MSLN-FL-his protein
# Assay: SPR (Biacore), antibody captured on Protein A chip;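 also: flow cell at 25 °C, antigen injected for 240 s at five concentrations from 200 nM downward, dissociation followed up to 600 s, double-referenced, fitted with Langmuir 1:1 model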
Kd,koff,kon,Binder
0.824 nM,0.000599 s⁻¹,727000 M⁻¹ s⁻¹,B1
0.95 nM,0.00125 s⁻¹,1.31e+06 M⁻¹ s⁻¹,B2
5.5 nM,0.00296 s⁻¹,539000 M⁻¹ s⁻¹,B3
5.37 nM,0.00724 s⁻¹,1.35e+06 M⁻¹ s⁻¹,B4
3.17 nM,0.000876 s⁻¹,276000 M⁻¹ s⁻¹,B5
1.98 nM,0.00172 s⁻¹,871000 M⁻¹ s⁻¹,B6
1.95 nM,0.000234 s⁻¹,120000 M⁻¹ s⁻¹,B7
92.6 nM,0.0215 s⁻¹,232000 M⁻¹ s⁻¹,B8
